Laboratory results taken from patent US20060251726.

Tests used:
[1] = test system: T1, stearate-Fus1 peptide (Stearic acid-KLRRVHKNLIPQGIVKLDHR)
T1 sequence: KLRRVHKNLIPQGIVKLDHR

[2] = test system: T2, non-stearate Fus1 peptide
T2 sequence: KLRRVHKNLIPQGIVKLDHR

In the case of “truncated commercial (New England Bio-Labs) cAbl tyrosine kinase (45 kD) containing only the SH2 and SH1 domains”, the “Abl tyrosine kinase assay using bacterially purified Abl kinase (GST-CRK phosphorylation)” value [1] is reported as “This peptide was strongly inhibitory in an Abl tyrosine kinase assay using bacterially purified Abl kinase”, the “c-Abl tyrosine phosphorylation of GST-CRK (32P, SDS-PAGE, phosphoimager; 10-55 µM peptide)” value [1] is reported as “the peptide inhibits c-Abl tyrosine phosphorylation of GST-CRK” and the “GST-Crk phosphorylation by the 45 kD Abl tyrosine kinase, 0-60 uM peptide” value [2] is reported as “Non-stearic acid modified Fus1 peptide did not inhibit Abl tyrosine kinase activity”. For the same substance, the “phosphorylation of Gst-Crk by commercial Abl” value [2] was “Non-stearate FUS1 peptide did not inhibit phosphorylation of Gst-Crk by commercial Abl”.
